# Test results reported in patent US20260070940A1 (Hoffmann-La Roche, published 2026).
# Residue numbers refer to the chain shown, from its start.
# T1: full-length human CEA with N-terminal SNAP tag on transfected HEK293 cells (human, UniProt P06731 35-685, SNAP tag labelled with terbium)
# T1 construct: whole, on cells; also called hu CEA-SNAP; CEACAM5
# T1 sequence (looked up): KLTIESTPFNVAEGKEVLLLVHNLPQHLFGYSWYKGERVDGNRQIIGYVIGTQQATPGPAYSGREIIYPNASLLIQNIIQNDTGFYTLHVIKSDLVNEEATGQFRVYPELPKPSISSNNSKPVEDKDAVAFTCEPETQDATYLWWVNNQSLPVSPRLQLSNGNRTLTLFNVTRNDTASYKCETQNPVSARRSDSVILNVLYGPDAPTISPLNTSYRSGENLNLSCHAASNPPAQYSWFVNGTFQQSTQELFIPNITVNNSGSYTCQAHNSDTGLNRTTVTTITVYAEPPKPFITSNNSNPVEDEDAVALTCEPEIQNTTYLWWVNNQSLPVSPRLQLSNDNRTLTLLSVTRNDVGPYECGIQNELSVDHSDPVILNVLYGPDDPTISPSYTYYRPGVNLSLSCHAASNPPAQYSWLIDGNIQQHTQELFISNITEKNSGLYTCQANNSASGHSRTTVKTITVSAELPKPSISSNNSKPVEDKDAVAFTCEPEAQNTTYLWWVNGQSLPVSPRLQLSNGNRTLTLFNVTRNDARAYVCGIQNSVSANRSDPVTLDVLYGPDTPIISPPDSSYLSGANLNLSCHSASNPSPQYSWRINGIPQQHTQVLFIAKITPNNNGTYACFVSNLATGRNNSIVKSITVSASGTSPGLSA
# T2: hu(NA1)BA-avi-His, biotinylated (human, biotin on the avi-tag)
# T2 construct: CEACAM5 domains N and A1 followed by two CEACAM1 Ig domains, avi-tag and his-tag; also called CEA antigen; chimera of CEACAM5 domains N and A1 on CEACAM1
# T2 chain: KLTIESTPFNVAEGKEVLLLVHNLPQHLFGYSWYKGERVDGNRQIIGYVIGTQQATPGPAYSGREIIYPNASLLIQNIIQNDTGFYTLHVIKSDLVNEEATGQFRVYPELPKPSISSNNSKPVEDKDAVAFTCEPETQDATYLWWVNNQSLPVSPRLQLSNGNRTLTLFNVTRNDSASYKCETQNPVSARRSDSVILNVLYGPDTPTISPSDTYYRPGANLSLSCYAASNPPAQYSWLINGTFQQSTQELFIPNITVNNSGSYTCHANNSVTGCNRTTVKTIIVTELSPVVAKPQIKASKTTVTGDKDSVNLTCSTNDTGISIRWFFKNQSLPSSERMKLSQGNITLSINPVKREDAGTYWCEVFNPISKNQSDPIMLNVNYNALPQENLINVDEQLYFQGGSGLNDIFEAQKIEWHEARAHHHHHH
# T3: MCSP antigen, amino acids 1553 to 2184 of matured MCSP with C-terminal avi-tag and His-tag, biotinylated (Homo sapiens (Human), UniProt Q6UVK1 1582-2213, limits assumed, biotin on the avi-tag)
# T3 construct: also called recombinant MCSP
# T3 sequence: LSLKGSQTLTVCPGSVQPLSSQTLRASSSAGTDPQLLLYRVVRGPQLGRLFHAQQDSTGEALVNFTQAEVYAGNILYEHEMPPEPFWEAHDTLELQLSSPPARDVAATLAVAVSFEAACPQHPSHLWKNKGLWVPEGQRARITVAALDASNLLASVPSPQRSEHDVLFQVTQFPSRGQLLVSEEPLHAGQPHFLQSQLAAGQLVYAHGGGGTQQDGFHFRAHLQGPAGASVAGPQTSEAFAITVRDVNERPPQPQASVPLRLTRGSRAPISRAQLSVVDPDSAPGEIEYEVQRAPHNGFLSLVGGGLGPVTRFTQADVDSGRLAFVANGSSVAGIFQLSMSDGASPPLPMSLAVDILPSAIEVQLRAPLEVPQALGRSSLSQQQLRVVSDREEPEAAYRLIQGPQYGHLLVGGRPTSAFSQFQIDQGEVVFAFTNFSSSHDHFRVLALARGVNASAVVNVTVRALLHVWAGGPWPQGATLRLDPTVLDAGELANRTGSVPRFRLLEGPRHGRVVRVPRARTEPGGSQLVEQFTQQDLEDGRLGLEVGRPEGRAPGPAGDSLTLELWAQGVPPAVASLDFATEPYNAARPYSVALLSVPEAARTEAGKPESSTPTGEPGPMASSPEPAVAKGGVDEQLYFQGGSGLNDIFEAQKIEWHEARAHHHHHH
# B1: LAG3 P10D1 aVH (VHH)
# VHH: EVQLVESGGGLVQPGGSLRLSCAASGFSIKDTCIAWVRRAPGKGTELVAEICEDIGYTRYADSVKGRFTISADTSKNTAYLQMNSLRAEDTAVYYCAAKEAGVGFDYWGQGTTVTVSS
# notes: also called P110D1
# B2: anti-CEA aVH P118.089 (VHH)
# VHH: EVQLVESGGGLVQPGGSLRLSCAASGFNIKDTCIGWVRRAPGKEEELVASICQYSGYTRYADSVKGRFTISADTSKNTAYLQMNSLRAEDTAVYYCAITSHHGDYNYWGQGTTVTVSS
# B3: anti-CEA aVH P112.083 (VHH)
# VHH: EVQLVESGGGLVQPGGSLRLSCAASGFNIKDTCIGWVRRAPGKEEELVADICPYKGSTRYADSVKGRFTISADTSKNTAYLQMNSLRAEDTAVYYCAIVSARDGYYNYWGQGTTVTVSS
# B4: anti-CEA aVH P118.008 (VHH)
# VHH: B3 VHH with D50Y, P53N, K55T, S57Y, V99T, A101Y, R102H, D103G, G104Q, Y105G
# B5: anti-CEA aVH P112.068 (VHH)
# VHH: B3 VHH with D50K, P53K, K55S, S57H, I98A, A101V, Y105H
# B6: anti-CEA aVH P127.141 (VHH)
# VHH: B3 VHH with D50G, P53E, K55T, A101Q, R102S, D103R, G104S, Y105V
# B7: anti-CEA aVH P124.067 (VHH)
# VHH: B3 VHH with D50A, P53E, S57Y, V99A, A101P, R102V, G104Q
# B8: anti-CEA aVH P118.093 (VHH)
# VHH: B3 VHH with Y54S, K55Y, S57G, A101K, R102I, G104Q
# B9: anti-CEA aVH P124.037 (VHH)
# VHH: B3 VHH with D50Q, P53Q, K55H, S100G, A101Q, R102N, D103Y, G104P, Y105V
# B10: anti-CEA aVH P123.065 (VHH)
# VHH: EVQLVESGGGLVQPGGSLRLSCAASGFNIKDSSTYIGWVRRAPGKEEELVASISCSRGNTRYADSVKGRFTISCDTSKNTAYLQMNSLRAEDTAVYYCAHPRYTWYDYWGQGTTVTVSS
# B11: anti-MCSP aVH clone 57.1 (VHH)
# VHH: EVQLVESGGGLVQPGGSLRLSCAASGFNIKQNCIEWVRRAPGKGTELVANICHDIGSTRYADSVKGRFTISADTSKNTAYLQMNSLRAEDTAVYYCAAWEQKGFNYWGQGTTVTVSS
# B12: anti-MCSP aVH clone 44 (VHH)
# VHH: EVQLVESGGGLVQPGGSLRLSCAASGFNIKDGYIDWVRRAPGKGTELVASIECTNGRATRYADSVKGRFTISCDTSKNTAYLQMNSLRAEDTAVYYCAYAGIGYYFYYWGQGTTVTVSS
# B13: anti-MCSP aVH clone 2 (VHH)
# VHH: EVQLVESGGGLVQPGGSLRLSCAASSFNIKDTYIGWVRRAPGKGTELVASIDCIYGYTRYADSVKGRFTISCDTSKNTAYLQMNSLRAEDTAVYYCAAQGYRLHYWGQGTTVTVSS
# B14: anti-FAP aVH P054.035 (VHH)
# VHH: EVQLVESGGGLVQPGGSLRLSCAASGFNIKDTCIGWVRRAPGKEEELVANICGSYGHTRYADSVKGRFTISADTSKNTAYLQMNSLRAEDTAVYYCASSYTVYRSYAYWGQGTTVTVSS
# B15: anti-FAP aVH P048.019 (VHH)
# VHH: B14 VHH with G53P, S54K, Y55H, H57A, S98Y, Y100G, T101N, R104N, S105R, A107K
# B16: anti-FAP aVH P053.020 (VHH)
# VHH: B14 VHH with N50R, S54Q, Y55I, H57S, S98T, A107D
# B17: anti-FAP aVH P054.064 (VHH)
# VHH: B14 VHH with Y55N, H57Y, S105G, A107D
# B18: anti-FAP aVH P031.033 (VHH)
# VHH: EVQLVESGGGLVQPGGSLRLSCAASGFNIKDTCIGWVRRAPGKEEELVANICGQYGQTRYADSVKGRFTISADTSKNTAYLQMNSLRAEDTAVYYCAKSGGRHGYEYWGQGTTVTVSS
# B19: anti-FAP aVH P034.001 (VHH)
# VHH: B18 VHH with Q54S, Y55I, Q57A, R102H, H103K, E106R
# B20: anti-FAP aVH P034.007 (VHH)
# VHH: B18 VHH with Q54G, Y55D, Q57H, K98T, G100Y, G101T, R102V, H103Y, G104R, E106Y
# B21: anti-FAP aVH P058.068 (VHH)
# VHH: B18 VHH with G53Q, Q54T, Y55H, Q57Y, K98Y, S99K, R102G, H103R, G104Y, E106D
# B22: anti-FAP aVH P032.056 (VHH)
# VHH: EVQLVESGGGLVQPGGSLRLSCAASSFNIKDTYIGWVRRAPGKEEELVANIHCRSGYTRYADSVKGRFTISCDTSKNTAYLQMNSLRAEDTAVYYCAHSGSRYIYKYWGQGTTVTVSS
# Target: T4, soluble human Lag3-IgG1-Fc with biotinylated C-terminal Avi-tag (human, biotin on the Avi-tag)
# T4 construct: Lag3 ECD, IEGRMD linker, IgG1 Fc, Avi-tag; also called LAG3-Fc-avi; biotinylated LAG3-Fc
# Test: SPR, LAG3-Fc immobilised
# T4 sequence (chain, as listed by the source limits assumed): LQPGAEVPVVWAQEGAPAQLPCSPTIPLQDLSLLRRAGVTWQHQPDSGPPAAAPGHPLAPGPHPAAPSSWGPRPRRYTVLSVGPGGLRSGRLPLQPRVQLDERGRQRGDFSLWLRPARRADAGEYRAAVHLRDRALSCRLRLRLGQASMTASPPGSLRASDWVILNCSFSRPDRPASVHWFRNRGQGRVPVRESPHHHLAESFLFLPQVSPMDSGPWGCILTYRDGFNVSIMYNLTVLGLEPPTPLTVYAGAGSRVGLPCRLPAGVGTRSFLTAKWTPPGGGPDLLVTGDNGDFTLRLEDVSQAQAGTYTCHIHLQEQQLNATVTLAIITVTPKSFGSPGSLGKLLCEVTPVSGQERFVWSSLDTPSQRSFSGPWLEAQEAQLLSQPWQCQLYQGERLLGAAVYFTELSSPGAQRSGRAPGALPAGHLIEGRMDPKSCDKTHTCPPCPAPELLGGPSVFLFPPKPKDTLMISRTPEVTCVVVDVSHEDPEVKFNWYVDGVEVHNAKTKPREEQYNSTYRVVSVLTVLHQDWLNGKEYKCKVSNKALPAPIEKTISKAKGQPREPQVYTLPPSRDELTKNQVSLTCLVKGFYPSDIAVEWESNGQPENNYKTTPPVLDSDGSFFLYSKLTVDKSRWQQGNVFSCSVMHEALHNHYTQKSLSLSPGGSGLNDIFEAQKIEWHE
Kd [nM],koff [s⁻¹],kon [M⁻¹ s⁻¹],Binder
27,0.00383,144000,B1

# Target: T1, full-length human CEA with N-terminal …
# Test: FRET (TagLite) on hu CEA-SNAP cells
# Description: Binding of a selected set of purified aVH binders to their epitope on CEA-expressing cells was determined by Fluorescence Resonance Energy Transfer (FRET) analysis. For this analysis, the DNA sequence encoding for the SNAP Tag (plasmid purchased from Cisbio) was amplified by PCR and ligated into an expression vector, containing the full length human CEA sequence. The resulting fusion protein was comprised of full-length CEA with an N-terminal SNAP tag. HEK293 cells were transfected with 10 μg DNA using Lipofectamine 2000 as transfection reagent. After an incubation time of 20 h, cells were washed with PBS and incubated for 1 h at 37° C. in LabMed buffer (Cisbio) containing 100 nM SNAP-Lumi4Tb (Cibsio), leading to specific labeling of the SNAP Tag. Subsequently, cells were washed 4 times with LabMed buffer to remove unbound dye. […] Cells were then stored frozen at −80° C. for up to 6 months. Binding was measured by adding CEA-specific aVH binders at a concentration ranging from 0.005 up to 100 nM to labeled cells (100 cells per well) followed by addition of d2-labeled anti-his tag antibody (Cisbio, final concentration was 200 nM per well) as acceptor molecule for the FRET. […] The ratio of acceptor to donor emission was calculated and the ratio of the background control (cells only incubated with anti-his tag antibody) subtracted. Curves were analysed in GraphPad Prism5 (FIG. 9) and KDs calculated (Table 26).
row,Kd [nM],Binder
1,16.8,B2
2,10.4,B3
3,28.6,B4
4,14.6,B5
5,28.3,B6
6,74.3,B7
7,47.3,B8
8,11.1,B9
9,190,B10

# Target: T2, hu(NA1)BA-avi-His, biotinylated
# Test: SPR, bacterial supernatant;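 as to result: SPR at 25 °C with biotinylated human or murine FAP captured via neutravidin, aVH-containing bacterial supernatants diluted 1:3 as analyte, 600 s dissociation, blank supernatant without aVH as reference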
# Description: The off-rate of selected aVH clones was measured using a ProteOn XPR36 instrument (Biorad) at 25° C. with biotinylated hu(NA1)BA-avi-His immobilized on NLC chips by neutravidin capture. CEACAM1-avi-his was used as a negative control. Immobilization of recombinant antigens (ligand): Antigens were diluted with PBST (10 mM phosphate, 150 mM sodium chloride pH 7.4, 0.005% Tween 20) to 10 μg/ml, then injected at 30 μl/minute at varying contact times, to achieve immobilization levels of 400, 800 or 1600 response units (RU) in vertical orientation. Injection of analytes: Injection direction was changed to horizontal orientation and 5 individual aVH-containing supernatants that were diluted 1:3 with PBST were injected simultaneously at 60 μl/min along separate channels 1-5, with association times between 120 and 180s, and dissociation times of 800s. Diluted bacterial supernatant without aVH was injected along the sixth channel to provide an “in-line” blank for referencing. Dissociation rate constants (koff) were calculated using the “koff-rate” calculation in ProteOn Manager v3.1 software.
row,koff [s⁻¹],Binder
1,0.0599,B2
2,0.00034,B3
3,0.0305,B4
4,0.0016,B5
5,0.0317,B6
6,0.00704,B7
7,0.033,B8
8,0.0395,B9
9,0.0278,B10

# Target: T2, hu(NA1)BA-avi-His, biotinylated
# Test: SPR, purified aVH
# Description: CEACAM1-avi-his was again used as a negative control Immobilization of recombinant antigens (ligand): Antigen was diluted with PBST (10 mM phosphate, 150 mM sodium chloride pH 7.4, 0.005% Tween 20) to 10 μg/ml, then injected at 30 μl/minute at varying contact times, to achieve immobilization levels of 200, 400 or 800 response units (RU) in vertical orientation. […] Buffer (PBST) was injected along the sixth channel to provide an “in-line” blank for referencing. Association rate constants (kₒₙ) and dissociation rate constants (koff) were calculated using a simple one-to-one Langmuir binding model in ProteOn Manager v3.1 software by simultaneously fitting the association and dissociation sensorgrams. The equilibrium dissociation constant (KD) was calculated as the ratio koff/kₒₙ.
row,Kd [nM],Binder
1,37.9,B2
2,7.26,B3
3,96.2,B4
4,16.2,B5
5,135,B6
6,296,B7
7,102,B8
8,15.2,B9
9,89.1,B10

# Target: T3, MCSP antigen, amino acids 1553 to 2184 …
# Test: SPR, MCSP immobilised
Kd [nM],koff [s⁻¹],kon [M⁻¹ s⁻¹],Binder
48,0.0142,295000,B11
109,0.0163,150000,B12
8,0.00339,458000,B13

# Target: T5, murine FAP avi his, biotinylated (murine, UniProt P97321 27-761, biotin on the avi-tag)
# T5 construct: also called muFAP; mu FAP
# Test: SPR, bacterial supernatant;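 as to result: SPR at 25 °C with biotinylated human or murine FAP captured via neutravidin, aVH-containing bacterial supernatants diluted 1:3 as analyte, 600 s dissociation, blank supernatant without aVH as reference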
# Description: (§1) Clones that were identified in the “mix-and-read assay” performed with the Mirrorball instrument were further analyzed by Surface Plasmon Resonance (SPR). The off-rate of selected aVH clones was measured using a ProteOn XPR36 instrument (Biorad) at 25° C. with biotinylated human and murine FAP antigen immobilized on NLC chips by neutravidin capture. Immobilization of recombinant antigens (ligand): Antigens were diluted with PBST (10 mM phosphate, 150 mM sodium chloride pH 7.4, 0.005% Tween 20) to 10 μg/ml, then injected at 30 μl/minute at varying contact times, to achieve immobilization levels of 400, 800 or 1600 response units (RU) in vertical orientation. Injection of analytes: Injection direction was changed to horizontal orientation and 5 individual aVH-containing supernatants that were diluted 1:3 with PBST were injected simultaneously at 60 μl/min along separate channels 1-5, with association times between 120 and 180s, and dissociation times of 600s. Diluted bacterial supernatant without aVH was injected along the sixth channel to provide an “in-line” blank for referencing. Dissociation rate constants (koff) were calculated using the “koff-rate” calculation in ProteOn Manager v3.1 software.
koff [s⁻¹],binding result,Binder
0.0151,,B14
0.0171,,B15
0.0294,,B16
0.0312,,B17
0.0106,,B18
0.0176,,B19
0.0106,,B20
,no binding,B21
0.0222,,B22

# Target: T6, human FAP avi his, biotinylated (human, UniProt Q12884 27-759, biotin on the avi-tag)
# T6 construct: also called huFAP
# Test: SPR, bacterial supernatant;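 as to result: SPR at 25 °C with biotinylated human or murine FAP captured via neutravidin, aVH-containing bacterial supernatants diluted 1:3 as analyte, 600 s dissociation, blank supernatant without aVH as reference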
# Description: as §1
koff [s⁻¹],binding result,Binder
0.0141,,B14
0.00547,,B15
0.0125,,B16
0.0161,,B17
,no binding,B18
,no binding,B19
0.00385,,B20
0.00316,,B21
,no binding,B22
